Experimental findings from patent US20120020878A1, “FUSOGENIC PROPERTIES OF SAPOSIN C AND RELATED PROTEINS AND PEPTIDES FOR APPLICATION TO TRANSMEMBRANE DRUG DELIVERY SYSTEMS” (CHILDREN'S HOSPITAL MEDICAL CENTER, priority 2008, published 2012) are described below.

The subject of one experiment is tumors. Put plainly: Tumor imaging experiments with SapC peptide nanovesicles. It counts as in vivo, mice. To be noted: peptide in phospholipid (e.g., DOPS) nanovesicles. From the text: The nanovesicles are stable and relatively uncomplicated to make. […] For example, our fluorophore-nanovesicles offer a rapid and precise imaging method for seeing and measuring the change in tumor size of living mice. The tissue-homing, imaging nanovescicles of the present invention enable the researchers and physicians to determine the location and size of a broad range of tumors, including hidden, metastatic tumors.
Several saposin C peptides were synthesized to test their activity in the nanovesicles. […] In one embodiment, the peptide comprises one of more sequences selected from the groups MCS, LCS, and VCS within the peptide sequence. In certain embodiments, amino acids, such as Lys or Cys, are required for the tumor-homing effect.

Experiment [1] concerns cultured mouse cortical and hippocampal neurons. In words: Transport into cultured neurons. It counts as cell-based. Conditions: facilitated by complexes with DOPS liposomes. As to the method: Saposin C can be transported into endosomal and lysosomal compartments using saposin-C liposomes containing long-chain anionic phospholipids. This method can be used for the treatment of neurological diseases including, for example, those in which MVB accumulation contributes to pathology and progression of disease.
Primary Cortical Neuron Cultures—Cortical neurons are cultured in serum-free Neuroblasal medium with B27 supplements as described by Whitmarsh et al.^44 Take out E16 mouse embryos, cut the head and place them into ice-cold Ca/Mg-free Hank Balance Salt Solution (HBSS) with papain (1 mg/ml). The brain is dissected out and place scalpel along the dorsal midline between the two cerebral hemispheres but slightly deviate towards to the side as it cut. This will give a clean cerebral cortex. Peel out the meninges gently without touching the medial side of the cortex where the hippocampus is located. Cut out the cortex with curved fine surgical scissors and collect them in ice-cold HBSS. The cortical tissue is replaced in papain HBSS solution for 15-20 minutes at room temperature to soften up the tissues. Transfer them to papain-inhibitor solution for another 5 minutes at room temperature and finally back to 2 ml ice-cold HBSS. Fisherbran 12-546 (18CIR-2) coverglasses in 12-well plate are coated with PEI containing laminin overnight. […]

Experiment [2] is described as follows: Vesicle size change determination (N4 plus submicron particle sizer). From the text:
The amino acid residues 51-67 are necessary, but not sufficient, for its optimal enzymatic activation function. The disulfide structure and conformational alteration of saposin C upon lipid binding are also required for this activity. Three approaches are used for this study: (1) stopped-flow monitoring reduction of self-quenching resulting from fusion of fluorescence probe-containing vesicle with non-fluorescent vesicle induced by saposin C; (2) monitoring the lipid vesicle size changes upon addition of saposin C to vesicles, the size distribution as determined using N4 plus submicron particle sizer (Coulter Co.); (3) monitoring intrinsic fluorescence of Trp-saposin C change during liposomal fusion.
Electron microscopy (EM) is used for vesicle fusion analysis, since the size of fused vesicles is bigger than those of non-fused. N4 plus submicron particle size is used to estimate particle sizes in the range of 3 nm to 3 um since most liposomes fit in this range. Sonication conditions with a cup sonicator give mono-dispersed BPS-liposomes with ˜200 nm in size. Upon addition of saposin C, these vesicles change to a larger size up to 2-3 um. The size increase is related to vesicles fusion as shown by the above dequenching experiments.
Saposin C promotes the size changes at ˜50 nM concentration. To define the regions responsible for this fusion property, peptides containing only 50% of the NH2-terminal or 50% of the COOH-terminal halves in saposin C are tested. Both peptides show fusion activity.

In another experiment the target is T1, acid β-glucosidase (Homo sapiens, UniProt P04062).
T1 sequence (P04062 40-536): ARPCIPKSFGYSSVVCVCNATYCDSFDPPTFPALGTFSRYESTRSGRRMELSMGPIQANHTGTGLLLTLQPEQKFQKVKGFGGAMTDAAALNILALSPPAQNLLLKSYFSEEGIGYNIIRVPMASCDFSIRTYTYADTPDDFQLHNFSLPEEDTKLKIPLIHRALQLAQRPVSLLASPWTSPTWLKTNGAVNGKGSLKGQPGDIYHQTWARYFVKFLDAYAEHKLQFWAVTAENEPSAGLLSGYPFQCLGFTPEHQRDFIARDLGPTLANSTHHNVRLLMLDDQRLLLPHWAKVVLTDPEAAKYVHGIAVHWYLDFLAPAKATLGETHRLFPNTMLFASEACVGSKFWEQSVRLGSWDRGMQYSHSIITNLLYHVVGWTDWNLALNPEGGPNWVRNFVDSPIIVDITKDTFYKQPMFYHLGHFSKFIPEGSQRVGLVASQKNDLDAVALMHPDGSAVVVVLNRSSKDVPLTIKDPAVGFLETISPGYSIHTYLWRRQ
In words: Activation of acid β-glucosidase in liposomal reconstitution system. It counts as biochemical. As to the method: Functional saposins were overexpressed in BL21(DE3) cells using a pET 21a series vector. Following IPTG induction at 37° C. or 30° C., large amounts of saposins containing His•Tag were found in the soluble fraction of the disrupted cells. These were conveniently purified to electrophoretic homogeneity on nickel-loaded columns. Alternatively, saposins without His•Tag were generated by introducing a stop codon after protein coding region, and then purified using immuno-affinity columns with T7-taq monoclonal antibody. […] Circular dichroism spectra, light scattering, and ES_MS analyses were used to evaluate the physical properties of the purified saposins, such as aggregation status and molecular weight. Trp-saposins without His•Tag were also generated for necessary control experiments. The functional integrity of recombinant saposin C is determined using delipidated and homogenous acid β-glucosidase in a liposomal reconstitution system and in neuritogenic assays. Recombinant saposin B function is determined using a sulfatide binding assay.

A short description of experiment [3]: Fusion mechanism study with preformed saposin C-PS(18:1,1) liposome complexes. As to the method: Protein conformational changes are thought to play a role in protein-mediated membrane fusion. This fusion mechanism is evaluated using saposin C-dependent membrane fusion. First, saposin C-PS(18:1,1) liposome complexes are formed. In this saposin C-anchored membrane, protein conformation is altered. This complex is stable from pH 3 to 10, and in low concentrations of SDS solution.
Since the Trp in saposin C(0W) is embedded inside of lipid bilayer, the change of its signal is indicative of that the surrounding environment of Trp has been changed. After about 20 to 30 ms, Trp fluorescence signal decreases to the starting level. […] Shortly after this, the signal drops back to starting level signaling on end of the fusion process. […] Therefore, a conformational change of saposin C upon lipid binding is […] for its fusogenic activity.

Experiment [4] can be described thus: R18 dequenching stopped-flow membrane fusion assay. Conditions: R18-labeled and unlabeled PS(18:1,1) vesicles. From the text: Fluorescence probes have been widely used to determine membrane fusion, such as fluorescence dequenching, and fluorescence resonance energy transfer (FET), and can be used for quantitative and kinetics analyses. The dequenching approach is used to investigate saposin C's fusogenic activity. Octadecyl rhodamine B (R18) is selected as fluorescence probe and is entrapped in internal aqueous compartment of liposomal vesicles by co-sonication with BPS or PS(18:1,1).
Fluorescence increase (dequenching) of R18 occurs upon R18 concentration decreases. After non-labeled and labeled vesicles fuse, the R18 concentration is diluted, resulting in an increase in intensity of fluorescence. R18-labeled vesicles (lipid:R18=96:4, mol:mol) are mixed with the same lipid vesicles without fluorescence probe. Stopped-flow assays are conducted to quickly mix these vesicles with saposin C or Ca^2+ ion. Time-trace curves are generated for kinetic analysis.

Experiment [5] is described as follows: Stopped-flow Trp fluorescence of saposin C/liposome complex formation. To be noted: PS(18:1,1) or BPS vesicles. It counts as binding. From the text:
To investigate temporal and spatial interactions of saposins and liposomal membrane, fluorescence stopped-flow and quenching approaches are used with Trp as the intrinsic fluorescence probe of the saposins. These experiments allow identification of regional interactions between saposins and lipid bilayers, and also the kinetics of their binding.
This binding induces change is lipid-concentration dependent and requires at least one unsaturated fatty acid chain. To evaluate the kinetics of this interaction, stopped-flow experiments are conducted the change in fluorescence during saposin C/liposome complex formation is monitored. When saposin C(0W) is mixed with PS(18:1,1) or BPS vesicles, fluorescence of Trp is increased, but the time course of this change is undetectable due to limitation of the machine's capability. Apparently, the interaction of saposin C and unsaturated PS containing membranes occurs within at least 10 ms.

For EKEILDAFDKMCSKLPK [Saposin E24-K41], the tumor-homing function result with tumors is given as “optimal tumor-homing function”.

On to FDKMCSKLPK [F32 to K41], for which the tumor-homing function result with tumors is on record as “tumor-homing function”.

Turning to “EVCEFLVKEVTKLIDNNKTEKEILDAFDKMCSKLP [Saposin E6-P40, SapC peptide E6-P40]”, the tumor-homing function result in the experiment with tumors is “tumor-homing function”.

For the molecule “SPELVCSMLHLCSG [Saposin S67-G80, SapC peptide S67-G80]”, in the experiment with tumors, the tumor-homing function result was “tumor-homing function”.

With “KSLSEECQEVVDTYGSSILSILLEEVSPELVCSMLHLCSG [Saposin K41-G80, SapC peptide K41-G80]”, the tumor-homing function result in the experiment on tumors is listed as “tumor-homing function”.

B1: Saposin C: saposin C (SapC, a small lysosomal protein, 80 AA); recombinant, produced in E. coli (protein)
chain: SDVYCEVCEFLVKEVTKLIDNNKTEKEILDAFDKMCSKLPKSLSEECQEVVDTYGSSILSILLEEVSPELVCSMLHLCSG
modifications: left off: small tags and cut ends
notes: saposin C (SapC, a small lysosomal protein, 80 AA); recombinant, produced in E. coli
On to B1, for which the transport into neurons entry in experiment [1] was “transported into the cultured mouse cortical and hippocampal neurons”. Besides, in experiment [2], the “concentration that promotes the size changes” value is ~50 nM. In addition, the “vesicle size upon addition of saposin C” value in experiment [2] (mono-dispersed BPS-liposomes of ˜200 nm before addition) is listed as 2-3 um. In addition, the vesicle size change result in experiment [2] (pH 4.7, 10 min period) was “enlarges vesicle size”; in experiment [2] (pH 7.4, 10 min period) it was “not”. In the experiment with acid β-glucosidase (purified recombinant protein), the “activation of acid β-glucosidase” value is “excellent activation”. The “fusogenic activity when bound to lipid membrane” value in experiment [3] is recorded as “retains the fusogenic activity”. For the same molecule, the “kinetics of induced membrane fusion” value in experiment [4] is “the same kinetics as those with Ca^2+”. In addition, the “time within which interaction with unsaturated PS containing membranes occurs” value in experiment [5] is recorded as ≤ 10 ms.

B2: saposin C(S37W): saposin C with a Trp at residue 37 (i.e., in the middle) (protein, UniProt P07602 311-390, looked up, variant S37W)
Saposin-C: SDVYCEVCEFLVKEVTKLIDNNKTEKEILDAFDKMCWKLPKSLSEECQEVVDTYGSSILSILLEEVSPELVCSMLHLCSG
modifications: Saposin-C
With B2, in the experiment with acid β-glucosidase, the “effect of Trp substitution on activation properties” value is “no effect”.
